Positions count from the first letter of the chain named. One block for each binder: values may come before it.
Experiments:
[1] = target: T1, OsMADS1 aa 74-172 (Oryza sativa, UniProt A2XDY1 74-172); assay: Y2H; input trait library
T1 construct: prey, AD fusion; also called PN19788
T1 sequence: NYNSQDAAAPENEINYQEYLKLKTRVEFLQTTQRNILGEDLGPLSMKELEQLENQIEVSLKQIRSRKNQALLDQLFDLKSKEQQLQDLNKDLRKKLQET
Outline: (§1)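 Protein-protein interactions were detected with an automated, high-throughput yeast two-hybrid assay provided by Myriad Genetics Inc. (Salt Lake City, Utah). A bait clone encoding a defined amino-acid fragment of a rice protein was screened against a rice prey library, either the input trait or the output trait library. Prey clones were retrieved, and their encoding sequences were compared by BLAST against databases to identify the interacting proteins.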

[2] = target: T2, OsMADS1 aa 95-257 (Oryza sativa, UniProt A2XDY1 95-257); assay: Y2H; input trait library
T2 construct: prey, AD fusion; also called PN19788
T2 sequence: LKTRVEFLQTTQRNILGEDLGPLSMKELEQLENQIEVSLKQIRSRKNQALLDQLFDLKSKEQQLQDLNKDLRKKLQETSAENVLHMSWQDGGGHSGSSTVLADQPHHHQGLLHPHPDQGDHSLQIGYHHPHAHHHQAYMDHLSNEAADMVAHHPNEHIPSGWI
Outline: as §1

[3] = target: T3, OsFDRMADS8 aa 69-233 (Oryza sativa, UniProt A2Z9Q7 69-233); assay: Y2H; input trait library
T3 construct: prey, AD fusion; also called PN20698
T3 sequence: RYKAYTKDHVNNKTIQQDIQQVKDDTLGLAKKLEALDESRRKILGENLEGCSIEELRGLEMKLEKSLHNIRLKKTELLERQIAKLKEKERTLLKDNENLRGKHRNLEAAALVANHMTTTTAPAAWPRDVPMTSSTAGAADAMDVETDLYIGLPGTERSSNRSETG
Outline: as §1

[4] = target: T4, OsMADS8 aa 127-248 (Oryza sativa, UniProt Q9SAR1 127-248); assay: Y2H; output trait library
T4 construct: prey, AD fusion; also called PN20778
T4 sequence: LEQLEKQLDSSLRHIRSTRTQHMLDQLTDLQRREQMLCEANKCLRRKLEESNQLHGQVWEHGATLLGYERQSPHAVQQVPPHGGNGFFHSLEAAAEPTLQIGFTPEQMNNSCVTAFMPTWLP
Outline: as §1

[5] = target: T5, OsFDRMADS6 aa 100-246 (Oryza sativa, UniProt P0C5B1 100-246); assay: Y2H; output trait library
T5 construct: prey, AD fusion; also called PN19766
T5 sequence: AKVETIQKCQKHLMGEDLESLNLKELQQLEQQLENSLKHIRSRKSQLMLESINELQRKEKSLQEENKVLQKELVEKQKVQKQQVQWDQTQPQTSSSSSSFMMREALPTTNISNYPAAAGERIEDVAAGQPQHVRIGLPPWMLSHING
Outline: as §1

[6] = target: T6, OsFDRMADS8 aa 94-230 (Oryza sativa, UniProt A2Z9Q7 94-230); assay: Y2H; output trait library
T6 construct: prey, AD fusion; also called PN20698
T6 sequence: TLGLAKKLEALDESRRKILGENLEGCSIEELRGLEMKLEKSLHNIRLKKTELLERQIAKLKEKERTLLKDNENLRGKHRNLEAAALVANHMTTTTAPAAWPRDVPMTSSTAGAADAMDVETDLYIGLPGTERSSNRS
Outline: as §1

binding result [1]: binds
B1: OsRAP1B aa 65-200 (other)
chain: KILERYERYSYAEKVLISAESDTQGNWCHEYRKLKAKVETIQKCQKHLMGEDLESLNLKELQQLEQQLENSLKHIRSRKSQLMLESINELQRKEKSLQEENKVLQKELVEKQKVQKQQLQWDQTQPQTISSSSSFM
notes: bait, Gal4 DBD fusion; also called PN20232

binding result [2]: binds
binding result [3]: binds
binding result [4]: binds
binding result [5]: binds
binding result [6]: binds
B2: OsRAP1B aa 100-247 (other)
chain: T5 sequence with V84L, S94I, A126P
notes: as for B1

Source: patent publication US20060253917A1 (published 2006)
